Data as given in the nanobody polyreactivity screen of Harvey et al. (2022).

Experiment: yeast display, Sf9 membrane polyspecificity reagent, FACS + sequencing; frameworks hold sequencing errors
Summary of the method: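 In a synthetic yeast display library (Saccharomyces cerevisiae BJ5465), nanobody expression was induced with galactose for 36–48 hours. FACS gates were set low and high (top ~1%) using anti-HA fluorescence for expression and streptavidin fluorescence for binding of the Sf9 membrane reagent. Each polyreactivity label is drawn from the gate of origin.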

Row | Sequence | polyreactivity (PSR sort gate)
1 | QVQLQESGGGLVQAGGSLRLSCAASGTIFRFRYMGWHRQAPGKERELVAGINGGTTTYYADSVIGRFTISRDNAINTVYLQMNSLKPDDTAVYNCAAGASRLTYYDYWGQGTQVTVSS | low polyreactivity
2 | QVQLQESGGGLVQAGGSLRLSCAASGTIFTARFMGWSRQAPGKERDLVATITDGGNTNHADSVKGRFTISRDNAKNTVYLQMNSLKPEDAAVNYSAAGEVDNDTLLYWGQGSQVTVSS | low polyreactivity
3 | QVQLQESGGGLVQAGGSLRLSCAASGTIFTARIMGWYRQAPGKERELVATITDGGNTNHADSVKCRFTISRDNAKITVYLQMNSLKPEDAAVYYCAAGEVDNDTLLYWGQGSQVTVSS | low polyreactivity
4 | QVQLQESGGGLVQAGGSLRLSCAASGTIFWLWAMGWYCQAPGKERELVASISSGGTTYHADSVKGRFTISRDNAKNTVYLQMNSLKPEDTAVYYSAAFYVATSKLGFWGQGSQVTVSS | low polyreactivity
5 | QVQLQESGGGLVQAGGSLRLSCAASGTISDSGLMGWYRQAPGKERELVAGISSGGITNYADSVKGRFTISRDNAKNKVYLQMNSLKPEDTAVYWGQGTQVTVSS | low polyreactivity
6 | QVQLQESGGGLVQAGGSLRLSCAASGTISEDDWSGWYRQAPGKERELVAAIGLGSNTNYADSLKGRFPISRDNAKNTVYLQMNSLKPEDTAVYYSAVSVWQYSDNVYRGQGTQVTVSS | low polyreactivity
7 | QVQLQESGGGLVQAGGSLRLSCAASGTITFAAYMGWYRQAPGKEREYVASIGYGATTYYADSEKGRFTISRDNANNTVYLPMNSLKPGDTAVYYCAVDRSPQYRYLYYWGQGTQVTVCS | high polyreactivity
8 | QVQLQESGGGLVQAGGSLRLSCAASGTITQEDWMGWYRQAPGKEREFVAAIGLGSNTNYADSLKGRFTISRDNAKNTVYLQMNSLKPEDTGVYYCAVSVWQYSDHVYRGQGTQVTVSS | low polyreactivity
9 | QVQLQESGGGLVQAGGSLRLSCAASGTITVLYKMGWFRQAPGKEREFVASINYGTSTYYADSVKGRFTVSRDSAKNTVYLQMNSRKPEDTAVYYCAAAYRWQDVYRYWGQGTQVTVSS | low polyreactivity
10 | QVQLQESGGGLVQAGGSLRLSCAASGYISFSGYMGRYRQAPGKEREFVDSITPGRSTYYADSVKGRFTISRDNAENTVYLQMNSLKPEDTAVYYCAADDSRTEQHAYWGQGTQVTVSS | high polyreactivity
11 | QVQLQESGGGLVQAGGSLRLSCAASGYISSWYPMGWYRQAPGKEREFVATIAPGATTYYADSVKGRFTISRDYAKNTVYLQMNSLKPEDTAVYFCAAGPENNDFYSYWGQGTQVTVSS | low polyreactivity
12 | QVQLQESGGGLVQAGGSLRLSCAASGYISTFSSEMGWYRQAPGKERELVASIAPGCTTSYADSVKGRFTISRDNAKNTVYLQMHRLKPEDTAVYYCAVDYTVPASFGYWGQGTQVTVSS | high polyreactivity
13 | QVQLQESGGGLVQAGGSLRLSCAASGYISYWIYMGCYRQAPGKERELLPVLITVLVPIMRIACKAGFTISRDNAKNSVYLQMNSQKPEDTALYYCAVSWYNGDYFSYWGQGTQVTVSS | low polyreactivity
14 | QVQLQESGGGLVQAGGSLRLSCAASGYITYFVGMGWYRQPPGKEREFVASIADGSNTYYADSVKGRFTISRDNAKNTVYLQRNSLKPEDTAVYYCAVVDSWTYRFDYWGQGTQVTVSS | high polyreactivity
15 | QVQLQESGGGLVQAGGSLRLSCAASVTISDSGLMGWYRQAPGKERELVAGISSGGITNYADSVKGRFTISRDNAKNTVYLQMNSLKPEVTAVYWGQGTKVTVSS | low polyreactivity
16 | QVQLQESGGGLVQAGGSLRLSCAATGSIFYRLKMGWHRQAPGKERELVATIDPGSNTYYADSVKGSFTISRDNAKNTVYPQMYSLKPEDTAVYYCAVSAHWTIHYYYWGQGTQVTVSS | high polyreactivity
17 | QVQLQESGGGLVQAGGSLRLSCASSGTISQEDWKGWYRQAPGKEREFVAAIGLGSNTNYADSLKGRFTISRDNAKNTVYLQMNSLKPEDTAVYYCAVSVWQYSDHVYRGQGTQVTVSS | low polyreactivity
18 | QVQLQESGGGLVQAGGSLRLTCAASGTISQEDWLGWYLQAPGKEREFVAAIGLGSNTNYADSLKGRFTISRDNAQNTVYLQMNSLKAEYTAVYYCAVSVWQYSDHVYRGQGTQVTVSS | low polyreactivity
19 | QVQLQESGGGLVQAGGSLRLTCAASRNISGSADLGWYHPAPGKEREFVASITSGGTTYYADSVKGRVTISRDNAKNTVYLQMNSLKPEDTAVYYCAVGDPADAEFGYWGQGSQVTVSS | low polyreactivity
20 | QVQLQESGGGLVQAGGSLRMRCAASRNISGSSDLGWYHQAPGKEREFVASITSGGTTYYADSVKGRFTISRDNAKNTVYLQMNSLKPEDTAVYYCAVGDPADAEFGYWGQGTQVTVSS | low polyreactivity
21 | QVQLQESGGGLVQAGGSLRMSCAASGNIFDADIMGWYRQAPGKERELVASITDGRRTNYADSVKGRYTISRDSEKNTVYMQMNSLIPVDTAVYYCADIAYPVVPTYFDYDSDYFHWGQGTQVTVSS | high polyreactivity
22 | QVQLQESGGGLVQAGGSLRPSCAASGNIFVPFKMGWYRLAPGKEREHVASINRGSTTNYADSVKGRFTISRDNAKNTVYLQMISLKPEDTAVYYCAAIAYPDIPTYLDYDSDYFYWDQGTQVTVSS | high polyreactivity

Row | Sequence | polyreactivity (PSR sort gate)
23 | QVQLQESGGGLVQAGGSLRPSCAASGSISDGVPKGWYRQAPGEERELVATTVLGATTNYADSVKGRFTISRGNAKNTVYLQMNSLKPEETAVYYCAAPLRYDKGFSYWGQGTQVTVSS | low polyreactivity
24 | QVQLQESGGGLVQAGGSLRQSCAASGSNSPWSYMGRSRQAPGKEREFVASINAGTNTYYADSAKGRITISRDNATNTVYLQMNSLKPEDTAAYYCAARYWNDYYFPYWGQGTQVTVSS | low polyreactivity
25 | QVQLQESGGGLVQAGGSLRQSYAASGYIFPSLAMGWYRQAPGKEREFVAAIGRGSTNNYADSVKGRFTISRDNAKNTAYQQMNSLNPEDTAVYYCAAAASPLTRHLYWGQGTQVTVSS | low polyreactivity
26 | QVQLQESGGGLVQAGGSQRLSCAASGYIFYFQYMGWYRQAPGKEREFVAAISDGANTNYADSVKGRFTISRDNAKNTEYLQMNSLKPEDTAVYFCAVYADENYYFIYWGQGTQVTVSS | low polyreactivity
27 | QVQLQESGGGLVQAGGSQRLSCASSGYIFYFQYMGWYRQAPGKEREFVAAISDGANTNYADSVKGRFTISRDNAKNTEYLQMNSLKPEDTAVYYCNADQYYWYEYDYWGQGTQVTVSS | low polyreactivity
28 | QVQLQESGGGLVQAGGSRRLSCAASGSISNLIAKCWYRQAQGKEREFVAAIGPGANTNYADSVKGRFTISRDNAKNPVYLQMNSRTPEDTAVYYCAVDYYGEAVYHYWGQGTQVTVSS | high polyreactivity
29 | QVQLQESGGGLVQAGGTLRLSCAASGSFSADEDMGWYRQAQGKEREFVAGISVGGNTNYADSVKGRFTISRENAKNTVYLQMNILKPEDTAVYYCNARLLYLGSGFYYWGQGTQVTVSS | high polyreactivity
30 | QVQLQESGGGLVQARGSLRLSCAASGTILYSLGMGWYRQAPGKRREFVASITWGTTTNYAESVKGRFTISRDNAKNTVYPQMNSLKPEDTAVYYCAAPPFGDSSYHYWRQGTQVTVSS | low polyreactivity
31 | QVQLQESGGGLVQARGSLRLSCAASGTISQEDCMGWYRQAPGKVREFVAAIGLGSNTNYADRLKGRFTISRDNAKNTVYLQMNSLKTEDTAVYYCAVSVWQYSDHVYRGQGTQVTVSS | low polyreactivity
32 | QVQLQESGGGLVQASGSLRLSCAASGNIFPDYFMGWYRLAPGKEREFVANITGGSTTNYADSVKGRFTISRDNAKNTLYLQMNSLKPEDTAVYYCAVNFGTVVLYLYWGQGTQVTVSI | high polyreactivity
33 | QVQLQESGGGLVQEGGSLRLSCAASGNISPPADMGWYRPAPGKERELVASIGTGGTTNYADSVKGRFTISRDNAKNTVYLQMNSLKPEDTAVYYCNVRYRSAGSRYGYWGQGTQVTVSS | low polyreactivity
34 | QVQLQESGGGLVQEGGSLRLSCAASGNISPPADMGWYRQAPGKERELVASIGTGGTTNYADSVKGRFTISRDNAKNTVYLQMNSLKPDDTAVYYCAAVRYEYNPYDYWGQGTQVTVRS | low polyreactivity
35 | QVQLQESGGGLVQEGGSLRLSCAASGSIFKVVHMGLYRQAPAKEREFVATIGEGGNTYYADSVKGRFTISRDNAKNTVYLQMNSLKPVDTAVYFYAVVLGTSYRYTYWGQGTQVTVSS | low polyreactivity
36 | QVQLQESGGGLVQEGGSLRLSCSASGNISPPADMGWSRQAPGKERELVASIGTGGTTNYADSVKGRFTISRDNAKNTVYLQMNSLKPDDTAVYYCAAGRYEYNPYDYWGQGTQVTVSS | low polyreactivity
37 | QVQLQESGGGLVQGGGSLRLSCAASGSNYRSWYMGWYRQAPGKERELVASITEGATTNYAYSVKAALPLAAITRNTVYLQMDSMKPEDTAVYYRAASFGSTYDLVYWGQGTQVTVSS | high polyreactivity
38 | QVQLQESGGGLVQVGGSQRLSCAASGNIFYNYAMGWYRHAQGKEREFDATINHGTSINYADSVKGRFTISRDNAKNTVYLQMNSLKPEDTAVYYCAARVVRYGYKYYYWGQGTQVTVSS | low polyreactivity
39 | QVQLQESGGGLVRAGGSLRLSCAASGYISTSIAIGWYRQAPGKERELVASFGAGAITNYADSVKGFTISRDNGKKTVYLQMNSLKPVDTALYYCAVYHGDRGYYSYWGQGTQVTVSS | low polyreactivity
40 | QVQLQESGGGLVRAGGSLRLSCAASGYISTSIAMGWYRQAPGKERELVASFGRGAITNYADSVKGFTISRDNGKNSVYLQMNSLKPEDTAVYYCAVYHGDRGYYSYWGQGTQVNVSS | low polyreactivity
41 | QVQLQESGGGLVRAGGSLRMSCAASGNIFDADIMGWYRQAPGKERELVASITDGRRTNYADSVKGRYTISRDSEKNTVYLQMNSLKPEDTAVYYCAAIAYPVVPTYFDYDSDYFHWGQGTQVTVRS | high polyreactivity
42 | QVQLQESGGGLVRAGGSLSLSCAASGTIFGQFYMGRYRQAPGKEREFVATINYGSSTNYADSVKGRYTISRDNAKNTVYLQMNSLKPEDTAVYYCNTDFFYYGYNFPYFDYDYWGQGSQVTVSS | low polyreactivity
43 | QVQLQESGGGMVQAGGSLRLSCAASGYISWADYMGWYRQAPGKERELVAGIGYGSTTYYADSVKGRFTISRDNAKNTAYLQMNSLKPQYTAVYYCAVGWYRDTAYKYWGQGTQVTVSS | low polyreactivity
44 | QVQLQESGGGMVQAGGSLRLSCAASGYISWADYMVWYRQAPGKERELVAGIGYGSTTYYADSVKGRFTISRDNAKNTAYLQMNSLKPEDTAVYYCAVGWYRDTAYKYWGQGTQVTVSS | low polyreactivity
